In the assay the target is recombinant full-length hemagglutinin H6 (A/Taiwan/2/2013) (influenza A virus H6N1 (A/Taiwan/2/2013)). Put plainly: BLI. Background: In BLI a coated tip is dipped into the sample, and binding shifts an interference pattern.

This passage reports Kd results from paper PMC7835374 (2021).

B1: 3I14^D93N IgG1 (antibody, V domains shown)
VH: QVQLLESGGGVVQPGRSLRLSCAASGFTFSNYGMHWVRQAPGKGLEWVAIISFDGSKKYYANSVKGRSTISRDNSKNTLSLQMNSLGPEDTALYYCAKLPSPYYFDSRFVWVAASAFHFWGQGILVTVSS
VL: LTQPPSASGTPGQRVTISCSGSSSNIGGNTVHWFQQLPGTAPKLLIYTNSLRPSGVPDRFSGSKSGTSASLAISGLQSEDEADYYCAAWDNSLNGQVFGGGTKLTVL
One may read the Kd as the constant that tells how readily two partners part at equilibrium. Consider B1, for which the Kd is 400 pM.
